Test results published in the nanobody polyreactivity screen of Harvey et al. (2022).

Assay: yeast display, Sf9 membrane polyspecificity reagent, FACS + sequencing; frameworks hold sequencing errors
Summary of the method: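 Using colony PCR, genes from sorted yeast display clones were amplified, then sequenced on MiSeq at 2 × 250 and filtered by CDR length. The clones had been stained with 10% biotinylated, detergent-solubilized Sf9 membrane reagent for 1 hour at 4 °C and sorted by FACS into low and high (top ~1%) gates on anti-HA and streptavidin fluorescence. Polyreactivity labels come from the gate of origin.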

| Sequence | polyreactivity (PSR sort gate) |
| --- | --- |
| QVQLVESGGGLVQAGGSLRLSCAASGRTFFPYAMGWYRQAPGKERELVAAITGSGSSTNYADSVKGRFTISRDNAKNTVYLQMTRLKPVDTAVYYCAKPYYRLEDYWGQGTQVTVSS | low polyreactivity |
| QVQLVESGGGLVQAGGSLRLSCAASGRTFFPYAMGWYRQAPGKERELVARISRTTGRTYYADSVKGRFTISRDNAKNTVFLQMNSLKPEDTAVYYCNAEGFRASGGYVRFEYWGQGTQVTVSS | high polyreactivity |
| QVQLVESGGGLVQAGGSLRLSCAASGRTFFPYPRGCYRQAPGTDREFFAAITWSGGSTTYADSVKGRFTISRDNAKNTVYLQMNSLKPEDTAVYYCNAGRRRSYSYDYWGQGTQVTVSS | low polyreactivity |
| QVQLVESGGGLVQAGGSLRLSCAASGRTFFRYAMGWYRPAPGKERELVAAITRSGGSTYYADSVKGRFTISRDNAKNTVYLLMNSLKPEDTAVYYCAAPREAYSRGYDSWGQGTQVTVSS | high polyreactivity |
| QVQLVESGGGLVQAGGSLRLSCAASGRTFFSNAMGWYRQAPGKERELVAAISNGDNTYFADSVKGRFTISRDNAKNTVYLQMNSLKPEDTAVYYCNTVRRSYWSWSTENSDYWGQGTQVTVSS | low polyreactivity |
| QVQLVESGGGLVQAGGSLRLSCAASGRTFFTYAMGWYRQAPGKERELVAAITGSGGSTSYADSVKGRFTISRDNAKNTVYLQMNSLKPEDTAVYYCAADWQELEYDYWGQGTQVNVSS | low polyreactivity |
| QVQLVESGGGLVQAGGSLRLSCAASGRTFFVNAMGGYRQAPGKERELVAAITWSGGSTSYADSVKGRFTISRDKAKNNVSLQLNSLKPEDTAVYYCAAEYYSYSHSYYYYGYEYWGQGTQVNVSS | high polyreactivity |
| QVQLVESGGGLVQAGGSLRLSCAASGRTFFYNAMGWYRQAPGKERELVAAIDWSGDSTYYADSVKGRFTISRDNAKNTVYLQMNSLKPEDTAVYYCAADGGQVDDSATRLYYWGQGTQVTVSS | high polyreactivity |
| QVQLVESGGGLVQAGGSLRLSCAASGRTFFYNTMGWYRQAPGKERELVAAISYRGGRTYYADSVKGRFTISRDNAKNTVYLQMNSLKPEDTAVYYCNAYSYGHYYWGQGTQVTVSS | high polyreactivity |
| QVQLVESGGGLVQAGGSLRLSCAASGRTFFYNTMGWYRQAPGKERELVAAITSSGGRTSYADSVKGRFTISRDNAKNTVYLQMNSLKPEDTAVYYCAALYSYYSLYDDYDYWGQGTQVTVSS | high polyreactivity |
| QVQLVESGGGLVQAGGSLRLSCAASGRTFFYYAMGWYRPAPGKERELVAGSTNYADSVKGRFTISRDNAKNTVYLQMNSLKPEETAVYYCNADPDDYWGQGTQVTVSS | low polyreactivity |
| QVQLVESGGGLVQAGGSLRLSCAASGRTFFYYTMGWYRQAPGKEREFVASISWSGASTYYADSVKGRFTISRDNAKNTVYLQMNSLKPEDSAVYYCAAPVTGGAYGYDYWGQGTQVTVSS | high polyreactivity |
| QVQLVESGGGLVQAGGSLRLSCAASGRTFGANAMGWYRQAPGKERELVAAISSSDDSTYYADSVKGRFTISRDNAKKTDDLQMNSLKPEDTAVYYCAVAVGYTDSPYSYDYWGQGTQVTVSS | low polyreactivity |
| QVQLVESGGGLVQAGGSLRLSCAASGRTFGANVMGWYRQAPGKERELVARISNGGRTSYADSVKARFTISRDNAKNPVYLQMNSLKPEDTAVYYCAALVVNVFPRYGYWGQGTQVTVSS | high polyreactivity |
| QVQLVESGGGLVQAGGSLRLSCAASGRTFGAYAMGWYRQAPGKERELVAAIDSGGITYYADSVKGRFTISRDNAKNTVYLQMNSLKPEDTAVYYCAADHRVVTFYEGDYWGQGTQVTVSS | low polyreactivity |
| QVQLVESGGGLVQAGGSLRLSCAASGRTFGAYAMGWYRQAPGKERELVASISRSGGTTYYADSVKGRFTISRDTAKNTVYLQMNSLKPEDTAVYYCAAQYVRYGHYYWGQATQVTVSS | high polyreactivity |
| QVQLVESGGGLVQAGGSLRLSCAASGRTFGDNAMGWYRQARGKERELVAAISSGDSTYYADSVKGRFTISRDNAKNSVYLQMNSLKPEDTAVYYCAARWRYTFYVSYYYWGQGTQVTVSS | high polyreactivity |
| QVQLVESGGGLVQAGGSLRLSCAASGRTFGEYAMGWYRQAPGKERELVAAITGGDSTNYADSVKGRFTISRDNAKNTVYFQMNSLKPEDTAVYYCAAYGVKVLWTLTTYDYWGQGTQVTVSS | low polyreactivity |
| QVQLVESGGGLVQAGGSLRLSCAASGRTFGFNVMGWYRQAPGKERELVAAISWSGGSTYYADSVKGRFTISRDNAKNTVYLQMNSLKPEDTAVYYCNNRYVHRYGYWGQGTQVTVSS | low polyreactivity |
| QVQLVESGGGLVQAGGSLRLSCAASGRTFGGNAMGWDRQAPGKERELLAAITGRGGSTYYADSLKGRFTISRDNAKNTVYLQMNSLKPEDTAVYYCNADGSAYIEDGYDYWGQGTQVTVSS | low polyreactivity |
| QVQLVESGGGLVQAGGSLRLSCAASGRTFGGNAMGWYRQAPGKERELVAAISGRGGSTYYADSVKGRFTISRDNAKNTVYLQMNSLKPEDTAVYYCAARSYLTPEYYYWGQGTQVTVSS | high polyreactivity |
| QVQLVESGGGLVQAGGSLRLSCAASGRTFGGYAMGWSRQAPGKERELVAAISWSGGRTYYADSVKGRFTISRDNAKNTVYLQMNSLKPEDTAVYYCAATSGRAFKYDYWGQGTQVTVSS | high polyreactivity |

| Sequence | polyreactivity (PSR sort gate) |
| --- | --- |
| QVQLVESGGGLVQAGGSLRLSCAASGRTFGGYAMGWYRQAPGKERELVAAIRWSGGSTYYADSVKGRFTISRDNAKNTVYLQMNSLKPEDTAVYNCAARSHTSADGGRYYYWGQGTQVTVSS | high polyreactivity |
| QVQLVESGGGLVQAGGSLRLSCAASGRTFGGYAMGWYRQAPGKERELVAAISSSGTRTYYAESVKGRFTISRDNAKNTVYLQMNSLKPEDTAVYYCAAYRVIVWYAMDYWGQGTQVTVSS | high polyreactivity |
| QVQLVESGGGLVQAGGSLRLSCAASGRTFGGYAMGWYRQAPGKERELVASITRSGGGTYYADSVKGRFTISRDNAKNTVYLQMNSLKPEDTAVYYCAVYFANPYSVYGLGVYSTLNYWGQGTQVTVSS | low polyreactivity |
| QVQLVESGGGLVQAGGSLRLSCAASGRTFGGYVMGWYRQAPGKESELVATITDSGGSTHYADSVKGRFTISRDNAKNTVYLQMNSLKPEDTAVYYCARRRSYRYPSEYNYWGQGTQVTVSS | high polyreactivity |
| QVQLVESGGGLVQAGGSLRLSCAASGRTFGINAMGWYRQAPGKERELVARIRKTVGSTYYADSVKGRFTISRDNAKNTVYLQMNSLKPEDTAVYYCAADLRYGYLYPYDSWGQGTQVTVSS | high polyreactivity |
| QVQLVESGGGLVQAGGSLRLSCAASGRTFGIYAMGWYRQAPGKERELVAAISSDASTSYADSVKGRFTISRDNAKNTVYLQMNSLKPEDTAVYYCAADPGPYYDWGYDYWGQGTQVTVSS | low polyreactivity |
| QVQLVESGGGLVQAGGSLRLSCAASGRTFGIYAMGWYRQAPGKERELVAAITGRGGSTHYADSVKGRFTISRDNAKNTVYLQMNSLKPEDTAVYYCNARWWVIRPYQRHDYWGQGTQVTVSS | low polyreactivity |
| QVQLVESGGGLVQAGGSLRLSCAASGRTFGIYAMGWYRQATGKERELVAGITWTGGSTYYADSVKGRFTISRDNAKNTVYLQMNSLKPEDTAVYYCAADFYVLQFYGLDYGYWGQGTQVTVSS | low polyreactivity |
| QVQLVESGGGLVQAGGSLRLSCAASGRTFGKNAMGWYRQAPGKEREFVAAITSRGGSTYYADSVKGRFTISRDNAKNTVYLQMNSLKPEDTAVYYCNREYNRPSQRTEHYYWGQGTQVTVSS | low polyreactivity |
| QVQLVESGGGLVQAGGSLRLSCAASGRTFGKNAMGWYRQAPGKERELVAAISWSGGRTYYADSVKGRFTISRDNAKNTVYLQMNSLKPEDTAVYYCAAVRRRRNSYGYWGQGTQVNVSS | high polyreactivity |
| QVQLVESGGGLVQAGGSLRLSCAASGRTFGKYAMGWYRQAPGKDRELVATISRSGGSTYYAVSVKGRFTISRDNAKNTVYLQMNSLKPEDTAVYYCNAVTSRYIWPPVVDRYHYWGQGTQVTVSS | high polyreactivity |
| QVQLVESGGGLVQAGGSLRLSCAASGRTFGLYAMGWYRQAPGKERELVATITTSDIMTYYADSVKGRFTISRDNAKNTVYLQMNRLKPEDTAVYYCATGGYDDFSSRPANDYWGQGTQVTVSS | low polyreactivity |
| QVQLVESGGGLVQAGGSLRLSCAASGRTFGNNAMGWYRQAPGKERELVASISSSGGTNYADSVKGRFTISRDNAKNTVYLLMNSLIPEDTAVYYCAKRKFTARQRFWGQGTQVTVSS | high polyreactivity |
| QVQLVESGGGLVQAGGSLRLSCAASGRTFGNYVMGWYRQAPGKERELVAAISRSGGSTYYADSVKGRFTISRDNAKNTVYLQMNSLKPVDTAVYYCNTVTTYEVEYWGQGTQVNVSS | high polyreactivity |
| QVQLVESGGGLVQAGGSLRLSCAASGRTFGPYAMGWYRQAPGKERELVAAITCSGGSTYYADSVKGRFTISRYNAKNTVYLQMNSLKPEDTAVYYCAPYHLSKLDYWGQGTQVTVSS | low polyreactivity |
| QVQLVESGGGLVQAGGSLRLSCAASGRTFGPYAMGWYRQAPGKEREMVAAIRFSGGSTYYADSVKGRFTISRDNAKNTVYLQMNSLKPEDTAVYYCNARLGSSKGRVEKYGSWGQGTQVTVSS | high polyreactivity |
| QVQLVESGGGLVQAGGSLRLSCAASGRTFGPYVMGGDRQAPGKERELVAGITSGGSTNYADSVKGRFTISRDNAKNTVYRQMNSLKPEDTAVYYCNADYLIYFGLYEYWGHGTQVTVSS | low polyreactivity |
| QVQLVESGGGLVQAGGSLRLSCAASGRTFGRNAMGWYRQAPGKERELVAAISDRGASTYYADSVKGRFTISRDNAKNTVYLQMNSLKPEDTAVYYCAAVFWVDILPGDYWGQGTQVTVSS | low polyreactivity |
| QVQLVESGGGLVQAGGSLRLSCAASGRTFGRNDMGWYRQAPGKERELLATITSGGSTNYADSVKGRFTISRDNAKNTVYLQMISLKPEDTAVYYCAAEFSPSRWAYSEGALRYNYWGQGTQVTVSS | low polyreactivity |
| QVQLVESGGGLVQAGGSLRLSCAASGRTFGRNVMGWYRQAPGKERELVAAISRSGGSTYYADSVKGRFTISRDNAKNTVYLQMNSLKPEDTAVYYCAAKYYRDRDWGQGTQVTVSS | high polyreactivity |
| QVQLVESGGGLVQAGGSLRLSCAASGRTFGRYALGWYRQAPGKERELVAAIRSGGSTYYADSVKGRFTISRDNAKNTVYLQMNSLKPEDTAVYYCAADIARHLTGFAYYRLDYWGQGTQVTVSS | low polyreactivity |
